Biological target: T1, Rv3066 (TetR-family regulator) (Mycobacterium tuberculosis H37Rv, UniProt I6X658 1-202)
T1 sequence: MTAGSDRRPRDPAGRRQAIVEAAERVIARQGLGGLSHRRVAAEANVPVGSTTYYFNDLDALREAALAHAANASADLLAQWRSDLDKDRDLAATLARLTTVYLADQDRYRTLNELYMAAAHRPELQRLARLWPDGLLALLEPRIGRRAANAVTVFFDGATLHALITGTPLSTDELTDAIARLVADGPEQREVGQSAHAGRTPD
Assay: fluorescence polarization

B1: 30-bp IR1 dsDNA, fluorescein (dsDNA)
DNA 1: CGAGCCTCCTTTGTGTACATTTGTACATGT
DNA 2: ACATGTACAAATGTACACAAAGGAGGCTCG
  Kd: 4.4 ± 0.3 nM
